Literature values in article PMC10742149.

Target: SIRP-α (Homo sapiens) (UniProt P78324)
UniProt P78324, sequence (P78324 31-373): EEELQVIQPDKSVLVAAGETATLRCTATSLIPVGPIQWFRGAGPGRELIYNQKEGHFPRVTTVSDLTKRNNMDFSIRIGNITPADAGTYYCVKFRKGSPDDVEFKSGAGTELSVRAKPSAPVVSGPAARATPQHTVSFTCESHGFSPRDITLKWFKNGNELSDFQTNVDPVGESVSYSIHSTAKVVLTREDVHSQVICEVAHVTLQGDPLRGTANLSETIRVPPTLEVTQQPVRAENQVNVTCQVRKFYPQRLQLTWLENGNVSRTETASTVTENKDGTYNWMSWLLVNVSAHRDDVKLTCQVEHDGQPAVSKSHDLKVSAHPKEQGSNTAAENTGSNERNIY

Kd: 2000 nM
Substance: CD47 (from UniProt Q08722)
